Target: HA-STIM1-L258C (UniProt Q13586)
Assay: disulfide crosslinking, Western blot
Conditions: diamide-treated STIM1/2 DKO HEK293 cells coexpressing HA-STIM1-L258C and a single mCh-STIM1 mutant; read off a plot

Row | other: Crosslinking (%) | Substance
1 | 1.8% | mCh-STIM1 421C
2 | 7% | mCh-STIM1 424C

The next lines start with the substance.

Row | Substance | other: Crosslinking (%)
3 | mCh-STIM1 417C | 2.9%
4 | mCh-STIM1 418C | 3.8%
5 | mCh-STIM1 422C | 1.2%

— PMC12718381
